Reference: patent US11142752B2, “Pullulanase mutant” (Jiangnan University, priority 2018, dated 2021)

Tested on: pullulanase of Geobacillus stearothermophilus
Assay: Inhibitory effect of cyclodextrin on pullulanase enzyme activity (DNS method, pullulan substrate)
Format: biochemical
Text: 2. Measurement of Enzyme Activity of the Pullulanase:
A 3,5-dinitrosalicylic acid (DNS) method is adopted. The pullulanase catalyzes the hydrolysis of pullulan to produce reducing sugar under certain conditions, 3,5-dinitrosalicylic acid and the reducing sugar are reduced under thermal conditions to produce a brown-red amino complex, the color depth is directly proportional to the amount of the reducing sugar within a certain range, and the measurement can be performed at the wavelength of 540 nm so as to calculate the enzyme activity. Enzyme activity unit definition: the amount of the enzyme that catalyzes the production of the reducing sugar equivalent to 1 μmol of glucose reducing power per minute is defined as one activity unit.
3. Measurement of the Enzyme Activity Comprises the Following Steps:
A. preheating: putting 1 mL of a 1% pullulan solution of which the pH value is 6.0 and 0.1 mL of a buffer solution of which the pH value is 6.0 in a centrifuge tube, and performing thermal insulation for 10 min on a water bath of 40° C.;
B. reaction: adding 0.1 mL (10 U) of an enzyme solution, performing shaking and mixing uniformly, performing accurate timing for 30 min, adding 1.5 mL of DNS for stopping reaction, performing treatment in a boiling water bath for 10 min, and performing instant cooling; and
C. measurement: measuring the light absorption value under the condition of 540 nm, and calculating the activity.
Reduction of the Inhibitory Effect of Enzyme Activity Characterization:
A. preheating: putting 1 mL of the 1% pullulan solution of which the pH value is 6.0 and 0.1 mL of 10 mM cyclodextrin in the centrifuge tube, and performing thermal insulation for 10 min on the water bath of 40° C.;
B. reaction: adding 0.1 mL (10 U) of the enzyme solution, performing shaking and mixing uniformly, performing accurate timing for 30 min, adding 1.5 mL of DNS for stopping reaction, performing treatment in the boiling water bath for 10 min, and performing instant cooling; and
On the basis, the phenylalanine at the position 481 of the Geobacillus stearothermophilus, the phenylalanine at the position 478 of the [Brevibacterium] halotolerans and the phenylalanine at the position 476 of the […] are mutated, obtained mutants and the mutation effects are shown in the table below. The key amino acid site is applicable to the pullulanase from different sources.

B1: Geobacillus stearothermophilus Wild enzyme: wild pullulanase of Geobacillus stearothermophilus (KZE96788.1, SEQ ID NO: 20) (protein)
chain: MLHISRTFAAYLDEIDQITVIVPKARCLDNMEPFVMTAPSGEDIPLVVQQKEDLGDAVKYVCRFSVPFQIGETHWIRARSGEESDVQIGAVVRTAAFDDQFFYDGKLGVEYAKEQTIFRVWAPTATAVSVKLVHPDHGDVRYVPLVRGERGVWSVAVSGDWERARYMYVACINRVWREAVDPYATAVSVNGEHGVIVDWEKTKLAKPAPPLPPCPSPTDAVIYELSIRDFTSHPDSGAVWKGKYLGLTEEHTRGPNGTVTGLSYLKELGVTHVQLMPFADFAGVDERDPQAAYNWGYNPLHLYAPEGSYATDPHDPYARIVELKQAIRALQENGLRVVMDAVYNHVYDREQSPLENLVPGYYFRYDAYGRPANGTGVGNDIASERRMARRWIVDSVVFWAKEYGINGFRFDLMGVHDIETMKSVRDALDAIDPSILVYGEGWDLPTPLAPEQKATMANAKRLPRLAYFNDRFRDAVKGSTFYLPDRGFALGDSAGREQVKTAIAGSLQAFGGLFCHPLQSINYVECHDNHTFWDKMEAANGHEPEWLRRKRQKLATAIVLLAQGIPFLHSGQEFYRTKGGDENSYRSPDAVNRLDWERKSRYEDDVRYIQGLIAIRRAHGAFRLATEVDVQRHLTFLEPIPPSVIAYWLRDVALYGLWTDIVVIHHNEETGVVIALPDDGEWHVVCDGERSGTVPLRQVRRFLDADGIGTWVLVKTGAAADVENGK
modifications: bacterial
Reduction rate of specific enzyme activity in existence of α-CD (inhibitor α-CD): 16.9%
Reduction rate of specific enzyme activity in existence of β-CD (inhibitor β-CD): 51.2%
Reduction rate of specific enzyme activity in existence of γ-CD (inhibitor γ-CD): 7.7%
